This is an account of results in US20170283834A1, “Processes for Producing A Fermentation Product Using A Fermenting Organism” (Novozymes A/S, priority 2014, published 2017).

One series deals with protease. The following applies: cited from earlier work.
Series [1] is described as follows: Protein thermal unfolding analysis (TSA, Thermal shift assay). In kind it is physicochemical. The method, then: Protein thermal unfolding of the T65A and Q327F variants, was monitored using Sypro Orange (In-vitrogen, S-6650) and was performed using a real-time PCR instrument (Applied Biosystems; Step-One-Plus).
In a 96-well plate, 25 microliter micropurified sample in 50 mM Acetate pH4,5 at approx. 100 microgram/ml was mixed (5:1) with Sypro Orange (resulting conc.=5×; stock solution from supplier=5000×). The plate was sealed with an optical PCR seal. The PCR instrument was set at a scan-rate of 76° C. pr. hr, starting at 25° C. and finishing at 96° C.
Protein thermal unfolding of the E501V+Y504T variant, was monitored using Sypro Orange (In-vitrogen, S-6650) and was performed using a real-time PCR instrument (Applied Biosystems; Step-One-Plus).
In a 96-well plate, 15 microliter purified sample in 50 mM Acetate pH4,5 at approx. 50 microgram/ml was mixed (1:1) with Sypro Orange (resulting conc.=5×; stock solution from supplier=5000×) with or without 200 ppm Acarbose (Sigma A8980). The plate was sealed with an optical PCR seal. The PCR instrument was set at a scan-rate of 76 degrees C. pr. hr, starting at 25° C. and finishing at 96° C.
Fluorescence was monitored every 20 seconds using in-built LED blue light for excitation and ROX-filter (610 nm, emission).
Tm-values were calculated as the maximum value of the first derivative (dF/dK) (ref.: Gregory et al; J Biomol Screen 2009 14: 700.)

A short description of series [2]: Glucoamylase activity (AGU) of variant compared to parent. Conditions: 37° C., pH 4.3, maltose 100 mM. In kind it is biochemical. The method, then:
The Novo Glucoamylase Unit (AGU) is defined as the amount of enzyme, which hydrolyzes 1 micromole maltose per minute under the standard conditions 37° C., pH 4.3, substrate: maltose 23.2 mM, buffer: acetate 0.1 M, reaction time 5 minutes.
An autoanalyzer system may be used. Mutarotase is added to the glucose dehydrogenase reagent so that any alpha-D-glucose present is turned into beta-D-glucose. Glucose dehydrogenase reacts specifically with beta-D-glucose in the reaction mentioned above, forming NADH which is determined using a photometer at 340 nm as a measure of the original glucose concentration.
The glucoamylase activity measures as AGU as described above was checked for the purified enzymes of the wild type Penicillium oxalicum and the variant glucoamylase.
The Glucoamylase Unit (AGU) was defined as the amount of enzyme, which hydrolyzes 1 micromole maltose per minute under the standard conditions (37° C., pH 4.3, substrate: maltose 100 mM, buffer: acetate 0.1 M, reaction time 6 minutes).

A short description of series [3]: Thermostability analysis by Differential Scanning Calorimetry (DSC). The series is classed as physicochemical. The method, then: . The thermal denaturation temperature, Td (° C.), was taken as the top of the denaturation peak (major endothermic peak) in thermograms (Cp vs. T) obtained after heating enzyme solutions in selected buffers (50 mM Sodium Acetate, pH 4.0 or 4.8) at a constant programmed heating rate of 200K/hr.
Sample- and reference-solutions (approximately 0.3 ml) were loaded into the calorimeter (reference: buffer without enzyme) from storage conditions at 10° C. and thermally pre-equilibrated for 10 minutes at 20° C. prior to DSC scan from 20° C. to 110° C. Denaturation temperatures were determined with an accuracy of approximately +/−1° C.

Another series deals with aspergillopepsin I. Briefly: PE001 protease stability, SDS-PAGE after protease treatment. In kind it is biochemical. Conditions: for intact glucoamylase (ca. 70 kDa): aspergillopepsin I. The method, then:
(§1) 40 μl enzyme solutions (1 mg/ml) in 50 mM sodium acetate buffer, pH 4.5, were mixed with 1/10 volume of 1 mg/ml protease solutions such as aspergillopepsin I described in Biochem J. 1975 April; 147(1):45-53, or the commercially available product from Sigma and aorsin described in Biochemical journal [0264-6021] Ichishima yr: 2003 vol:371 iss:Pt 2 pg:541 and incubated at 4 or 32° C. overnight. As a control experiment, H2O was added to the sample instead of proteases. The samples were loaded on SDS-PAGE to see if the glucoamylases are cleaved by proteases.

In a further series the target is T1, aorsin (Aspergillus oryzae, UniProt Q8NK92).
T1 sequence (Q8NK92 216-652): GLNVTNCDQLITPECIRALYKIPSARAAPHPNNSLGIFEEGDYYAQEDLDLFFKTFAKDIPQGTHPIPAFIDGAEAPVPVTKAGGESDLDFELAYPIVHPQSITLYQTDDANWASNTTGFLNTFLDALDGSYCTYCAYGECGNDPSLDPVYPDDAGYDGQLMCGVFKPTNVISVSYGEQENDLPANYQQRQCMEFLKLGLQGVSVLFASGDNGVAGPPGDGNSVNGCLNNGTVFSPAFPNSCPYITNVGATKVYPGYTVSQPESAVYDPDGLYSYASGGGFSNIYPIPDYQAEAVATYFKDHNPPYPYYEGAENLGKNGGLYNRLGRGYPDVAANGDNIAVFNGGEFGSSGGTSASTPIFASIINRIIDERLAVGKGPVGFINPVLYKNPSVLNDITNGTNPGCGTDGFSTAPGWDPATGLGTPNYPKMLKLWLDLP
Described as above. The series is classed as biochemical. Here is the method:
as §1

Another series deals with host proteases. The series can be described thus: Cleavage during cultivation, SDS-PAGE of culture supernatants. On the set-up: species or system Aspergillus niger. The method, then:
Aspergillus transformant of the variant and the wild type Penicillium oxalicum glucoamylase were cultivated in 6-well MT plates containing 4× diluted YP-2% maltose medium supplemented with 10 mM sodium acetate buffer, pH4.5, at 32° C. for 1 week.
The culture supernatants were loaded on SDS-PAGE.

B1: PE001: Penicillium oxalicum glucoamylase SEQ ID NO: 14 with K79V substitution (protein, listed as Penicillium oxalicum)
chain: RPDPKGGNLTPFIHKEGERSLQGILDNLGGRGKKTPGTAAGLFIASPNTENPNYYYTWTRDSALTAKCLIDLFEDSRAVFPIDRKYLETGIRDYKSSQAILQSVSNPSGTLKDGSGLGEPKFEIDLNPFSGAWGRPQRDGPALRATAMITYANYLISHGQKSDVSQVMWPIIANDLAYVGQYWNNTGFDLWEEVDGSSFFTIAVQHRALVEGSQLAKKLGKSCDACDSQPPQILCFLQSFWNGKYITSNINTQASRSGIDLDSVLGSIHTFDPEAACDDATFQPCSARALANHKVYVDSFRSIYKINAGLAEGSAANVGRYPEDVYQGGNPWYLATLGASELLYDALYQWDRLGKLEVSETSLSFFKDFDATVKIGSYSRNSKTYKKLTQSIKSYADGFIQLVQQYTPSNGSLAEQYDRNTAAPLSANDLTWSFASFLTATQRRDAVVPPSWGAKSANKVPTTCSASPVVGTYKAPTATFSSKTKCVPAKDIVPITFYLIENTYYGENVFMSGNITALGNWDAKKGFPLTANLYTQDQNLWFASVEFIPAGTPFEYKYYKVEPNGDITWEKGPNRVFVAPTGCPVQPHSNDVWQF
modifications: mat_peptide (1)..(595) mature Penicillium oxalicum glucoamylase sequence
B1: in the series on protease, the “sensitivity to protease degradation relative to the parent” value is listed as “reduced sensitivity to protease degradation relative to the parent”. For the same molecule, the “Tm (Deg. Celsius) +/−0.4” value in series [1] (Table 14a, 50 mM Acetate pH 4,5) came to 80.3 Deg. Celsius; in series [1] (Table 14b, Acarbose: + (200 ppm)), 86.9 Deg. Celsius; in series [1] (Table 14b, Acarbose: −) it was 79.5 Deg. Celsius. Besides, the “Relative specific activity AGU/mg” value in series [2] came to 102%. Moreover, the “DSC Td (° C.) @ pH 4.0” value in series [3] (pH 4.0, 50 mM Sodium Acetate) was found to be 82.1 °C. Moreover, in series [3] (pH 4.8, 50 mM Sodium Acetate), the “DSC Td (° C.) @ pH 4.8” value is 83.4 °C. Also, the “intact glucoamylase (ca. 70 kDa)” value with aspergillopepsin I (incubation 4° C. overnight) came out at 100%; in the series with aspergillopepsin I (incubation 32° C. overnight), 100%; with aorsin (incubation 4° C. overnight), 100%; with aorsin (incubation 32° C. overnight), 100%; in the series on host proteases (culture supernatant, 32° C., 1 week), 100%. Besides, the “SDS-PAGE result after protease treatment” value with aspergillopepsin I (proteases (aspergillopepsin I, aorsin)) is “only showed one band corresponding to the intact molecule”. In addition, in the series on host proteases, the “cleavage by host proteases during fermentation” value was “yielded only intact molecule”.
